Laboratory results as given in US8592138B2, “Methods for improving sperm functionality” (Androgenix Ltd., priority 2010, dated 2013).

What was measured:
Bovine sperm cells = experiment: Fluorescence microscopy of pegylated seminal proteins binding to sperm; format: cell-based; conditions: pegylated/biotinylated SP protein, 37° C. for 30 min in NCM
Protocol: (§1) NHS-dPEG4-Biotin was resuspended in H2O. Two hundred micrograms of PDC-109, BSP-A3, BSP-30 kDa and aSFP, were mixed in molar ratios of 1:5, 1:20, 1:40 and 1:60 with NHS-dPEG4Biotin and incubated for 30 min at room temperature. The reaction was stopped by the addition of 1M Tris-HCl pH7.4 at a final concentration of 25 mM. Pegylated proteins were dialysed against PBS to remove excess PEG. Pegylation was assessed by SDS-PAGE with Coomassie Blue staining. […] Western blots with labelled streptavidin supported this conclusion.
Bovine sperm cells from liquid extended semen were percoll-purified and washed in non-capacitating media (NCM; Table 3 below) with addition of 0.1% PEG (MW 600, Serva). The cells were incubated with pegylated/biotinylated SP proteins in NCM at 37° C. for 30 min, and centrifuged once to remove the supernatant. Cell pellets were resuspended in NCM containing streptavidin-alexa fluor 488 and LIVE/DEAD fixable far red dye, and incubated at 37° C. for 1 hr. Cells were washed once in NCM, and resuspended in NCM to a final concentration close to 10^7 cells/ml. DAPI was added to cells, and 10^5 cells were placed onto Superfrost plus slide. The sperm cells were studied with a Leica DMRE microscope equipped with a Leica DC500 camera, a fluorescent ebq 100 lamp and interchangeable filter sets.

sperm cells = experiment: Flow cytometry of pegylated seminal proteins binding to sperm; format: cell-based, bovine; conditions: 1 μg/mL pegylated SP protein, 30 min at 28° C.
Protocol: as §1
Sperm cells were prepared by centrifugation of fresh ejaculate containing extender through a 60% Percoll™ PLUS gradient followed by one wash in NCM. The sperm cells were then incubated for 30 min at 28° C. with 1 μg/mL of each of the pegylated SP proteins. After incubation with the pegylated SP proteins, cells were washed once, streptavidin-alexa fluor 488 was added to the cells and they were incubated for a further 30 min at 37° C. Flow cytometry analysis was then conducted.

B1: aSFP: acidic seminal fluid protein, bovine spermadhesin; SEQ ID NO: 4 (protein, listed as Bos taurus)
chain: MKLSSVIPWALLLSTATVDSMDWLPRNTNCGGILKEESGVIATYYGPKTNCVWTIQMPPEYHVRVSIQYLQLNCNKESLEIIDGLPGSPVLGKICEGSLMDYRSSGSIMTVKYIREPEHPASFYEVLYFQDPQA
- Fluorescent signal on sperm (streptavidin-alexa fluor 488) (Bovine sperm cells): strong fluorescent signal in the acrosomal cap part of sperm head

B2: PDC-109: bovine seminal plasma protein purified by ion exchange chromatography; SEQ ID NO: 1 (protein, listed as Bos taurus)
chain: MALQLGLFLIWAGVSVFLQLDPVNGDQDEGVSTEPTQDGPAELPEDEECVFPFVYRNRKHFDCTVHGSLFPWCSLDADYVGRWKYCAQRDYAKCVFPFIYGGKKYETCTKIGSMWMSWCSLSPNYDKDRAWKYC
- Binding to sperm cells (right-shift in the histogram vs streptavidin-alexa fluor 488 alone) (sperm cells): demonstrated binding to sperm cells

B3: BSP-A3: bovine seminal plasma protein; SEQ ID NO: 2 (protein, listed as Bos taurus)
chain: MALRLGLFLIWAGVSMFLQLDPVNGDEQLSEDNVILPKEKKDPASGAETKDNKCVFPFIYGNKKYFDCTLHGSLFLWCSLDADYTGRWKYCTKNDYAKCVFPFIYEGKSYDTCIIIGSTFMNYWCSLSSNYDEDGVWKYC
- Binding to sperm cells (right-shift in the histogram vs streptavidin-alexa fluor 488 alone) (sperm cells): demonstrated binding to sperm cells
